Tests used:
Assay in all cases: Western blot: E. coli lysate with the GST-tagged peptide, SDS-PAGE, PVDF membrane, POD-labelled antibody diluted 1000-fold, ECL
[1] = molecular target: T1, GST-tagged peptide H2 (positions 1 to 274 of the human IgG4 heavy chain constant region) (human, UniProt P01861 1-274 = IgG part)
T1 construct: E. coli lysate on Western blot; not shown: GST tag (glutathione S-transferase) linked to the N terminal, expressed from vector pGEX-6P-1
Method: (§1) Based on the designed amino acid sequences, base sequences suitable for expressing protein in E. coli were designed according to the protocol of GenScript Corporation, thereby preparing vector pGEX-6P-1 (GE Healthcare Bio-Sciences Corp.) to which the respective base sequences are inserted. The prepared expression plasmid was introduced to E. coli BL 21 strain, thereby obtaining a transformant. The transformant was cultured by an ordinary method and a protein expression was induced by IPTG. After the cells were collected by centrifugation, the cells were dissolved with an ordinary lysis solution, and subjected to ultrasonication. 6 μL of an SDS sample buffer solution was added to 6 μL of the obtained lysate. The respective prepared samples were subjected to a heat treatment at 95° C. for 5 minutes. 10 μL of the E. coli disrupted sample was added to each well of 5 to 20% electrophoresis gel (Atto Corportation) to which an SDS electrophoresis buffer solution was added. Similarly, a molecular weight standard (Bio-Rad Laboratories, Inc.) was added to each well and electrophoresed. After completing the electrophoresis, the electrophoresis gel was transcribed to a PVDF membrane (Millipore Corporation) with a transfer buffer solution. The PVDF membrane was immersed in a membrane blocking buffer solution, and then shaking was carried out at room temperature for 30 minutes. Amino groups of MaI4-08, MaI4-09, and MaI4-05-produced antibodies were subjected to a POD labeling treatment with a POD labeling kit (Dojindo Molecular Technologies, Inc.). The obtained labeled antibodies each were diluted 1000-fold by PBST. After the PVDF membrane was cleaned with PBST, the antibody solutions prepared each were added to the PVDF membrane, and then the reaction was performed at room temperature for 1 hour. After the PVDF membrane was cleaned by PBST, a signal was detected with ECL Prime Western Blotting Detection Reagents (GE Healthcare) with Image Quant Las4000.

[2] = molecular target: T2, GST-tagged peptide H8 (positions 111 to 327 of the human IgG4 heavy chain constant region) (human, UniProt P01861 111-325 = IgG part)
T2 construct: E. coli lysate on Western blot; not shown: GST tag (glutathione S-transferase) linked to the N terminal, expressed from vector pGEX-6P-1
Method: as §1

[3] = molecular target: T3, GST-tagged peptide H32 (H10 with lysine for arginine at position 289) (human, UniProt P01861 221-325 = IgG part)
T3 construct: not shown: GST tag (glutathione S-transferase) linked to the N terminal, expressed from vector pGEX-6P-1
T3 chain: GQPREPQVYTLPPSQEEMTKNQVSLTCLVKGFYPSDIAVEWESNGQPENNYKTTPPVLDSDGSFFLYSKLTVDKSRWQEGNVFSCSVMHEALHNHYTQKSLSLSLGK
Method: as §1

[4] = molecular target: T4, GST-tagged peptide H12 (positions 99 to 220 of the human IgG4 heavy chain constant region) (human, UniProt P01861 99-220 = IgG part)
T4 construct: E. coli lysate on Western blot; not shown: GST tag (glutathione S-transferase) linked to the N terminal, expressed from vector pGEX-6P-1
Method: as §1

[5] = molecular target: T5, GST-tagged peptide H4 (positions 1 to 165 of the human IgG4 heavy chain constant region) (human, UniProt P01861 1-165 = IgG part)
T5 construct: E. coli lysate on Western blot; not shown: GST tag (glutathione S-transferase) linked to the N terminal, expressed from vector pGEX-6P-1
Method: as §1

[6] = molecular target: T6, GST-tagged peptide H9 (positions 166 to 327 of the human IgG4 heavy chain constant region) (human, UniProt P01861 166-325 = IgG part)
T6 construct: E. coli lysate on Western blot; not shown: GST tag (glutathione S-transferase) linked to the N terminal, expressed from vector pGEX-6P-1
Method: as §1

[7] = molecular target: T7, GST-tagged peptide H6 (positions 1 to 55 of the human IgG4 heavy chain constant region) (human, UniProt P01859 1-55 = IgG part)
T7 construct: E. coli lysate on Western blot; not shown: GST tag (glutathione S-transferase) linked to the N terminal, expressed from vector pGEX-6P-1
Method: as §1

[8] = molecular target: T8, GST-tagged peptide H7 (positions 56 to 327 of the human IgG4 heavy chain constant region) (human, UniProt P01861 56-325 = IgG part)
T8 construct: E. coli lysate on Western blot; not shown: GST tag (glutathione S-transferase) linked to the N terminal, expressed from vector pGEX-6P-1
Method: as §1

[9] = molecular target: T9, GST-tagged peptide H10 (positions 221 to 327 of the human IgG4 heavy chain constant region, CH3 region) (human, UniProt P01861 221-325 = IgG part)
T9 construct: E. coli lysate on Western blot; not shown: GST tag (glutathione S-transferase) linked to the N terminal, expressed from vector pGEX-6P-1
Method: as §1

[10] = molecular target: T10, GST-tagged peptide H35 (H10 with Q235R, R289K, E299Q and L325P) (human, UniProt P0DOX5 343-449 = IgG part)
T10 construct: not shown: N-terminal GST tag (from vector pGEX-6P-1) and any vector linker
T10 chain: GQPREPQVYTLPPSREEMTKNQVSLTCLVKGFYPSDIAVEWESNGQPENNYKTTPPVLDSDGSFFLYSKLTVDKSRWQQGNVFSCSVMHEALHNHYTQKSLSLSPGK
Method: as §1

[11] = molecular target: T11, GST-tagged peptide H11 (positions 275 to 327 of the human IgG4 heavy chain constant region) (human, UniProt P01861 275-325 = IgG part)
T11 construct: E. coli lysate on Western blot; not shown: GST tag (glutathione S-transferase) linked to the N terminal, expressed from vector pGEX-6P-1
Method: as §1

T2 sequence (P01861 other isoform, or with tags, fused parts or gaps): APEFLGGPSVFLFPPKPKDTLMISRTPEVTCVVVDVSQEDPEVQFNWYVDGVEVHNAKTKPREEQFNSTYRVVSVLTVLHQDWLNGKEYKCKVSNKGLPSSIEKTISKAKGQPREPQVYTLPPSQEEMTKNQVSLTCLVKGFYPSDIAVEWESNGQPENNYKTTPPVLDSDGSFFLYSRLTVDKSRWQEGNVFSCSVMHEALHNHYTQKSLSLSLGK
T5 sequence (P01861 1-165): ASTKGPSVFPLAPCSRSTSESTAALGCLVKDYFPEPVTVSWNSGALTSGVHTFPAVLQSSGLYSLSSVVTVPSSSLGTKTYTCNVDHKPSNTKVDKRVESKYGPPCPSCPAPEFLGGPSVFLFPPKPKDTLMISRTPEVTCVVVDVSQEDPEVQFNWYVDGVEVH
T6 sequence (P01861 other isoform, or with tags, fused parts or gaps): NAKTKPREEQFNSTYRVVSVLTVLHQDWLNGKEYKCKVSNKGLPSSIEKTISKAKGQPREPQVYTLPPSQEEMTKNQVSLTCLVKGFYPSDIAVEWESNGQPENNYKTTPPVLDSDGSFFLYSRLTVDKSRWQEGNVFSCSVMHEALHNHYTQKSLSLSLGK
T1 sequence (P01861 1-274): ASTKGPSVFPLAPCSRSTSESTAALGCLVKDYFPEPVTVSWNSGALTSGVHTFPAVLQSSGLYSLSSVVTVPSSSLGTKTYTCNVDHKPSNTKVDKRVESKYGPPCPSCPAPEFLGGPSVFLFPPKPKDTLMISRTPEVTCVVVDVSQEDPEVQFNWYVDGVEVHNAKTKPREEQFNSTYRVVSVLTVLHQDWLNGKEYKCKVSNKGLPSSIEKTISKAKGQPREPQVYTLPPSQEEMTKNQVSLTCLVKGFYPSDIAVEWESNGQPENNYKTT
T7 sequence (P01859 1-55): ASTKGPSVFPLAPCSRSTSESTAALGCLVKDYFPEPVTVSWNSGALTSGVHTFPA
T4 sequence (P01861 99-220): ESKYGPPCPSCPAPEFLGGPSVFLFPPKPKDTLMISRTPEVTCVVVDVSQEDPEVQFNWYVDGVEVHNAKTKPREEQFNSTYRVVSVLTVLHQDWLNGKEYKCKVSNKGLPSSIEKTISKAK

B1: MaI4-08-produced antibody (antibody, IgG1, V domains shown)
VH: EVQLQQSGPELVKPGTSVKMSCKASGYIFTSYILHWVKQKPGQGLEWIAYINPYNDGTKYKEKFKGKGTLTSDKSSSTAYMELSSLTSEDSAVYYCARSGGGYGNYAWFAYWGPGTLVTVST
VL: DIQMTQSPSSLSASLGERVSLTCRASQDIGSSLNWLQQEPDGTIKRLIYATSSLDSGVPKRFSGSRSGSDYSLTISSLESEDFVDYYCLQYASYPPTFGAGTKLELK
notes: Purified on protein G from hybridoma culture supernatant; POD-labelled for the Western blots
binding result [1]: no binding
binding result [2]: binds
binding result [3]: binds
binding result [4]: no binding
binding result [5]: no binding
binding result [6]: binds
binding result [7]: no binding
binding result [8]: binds
binding result [9]: binds
binding result [10]: no binding
binding result [11]: no binding
